The values below come from patent US20260116920A1 (PEPTIDREAM, published 2026).

This experiment has as its target T1, human transferrin receptor (hTfR) (human, UniProt P02786 89-760).
T1 construct: used as 0.5 uM hTfR dimer solution, immobilised on an NTA sensor chip (Ni capture plus EDC/NHS coupling); also called human TfR; TfR1
The experiment is described as follows: SPR, hTfR immobilised; legend: low signal indicates no activity. The procedure:
NTA sensor chip (Global Life Sciences Technologies Japan K.K.) was inserted into BiacoreT200 (Global Life Sciences Technologies Japan K.K.), then the priming operation was performed three times by using running buffer containing: 10 mM HEPES pH 8.0 (Nacalai Tesque, Inc.), 150 mM NaCl (Nacalai Tesque, Inc.), 0.05% Tween 20 (Nacalai Tesque, Inc.), 0.1% BSA (SIGMA-ALDRICH) and 1.0% DMSO (FUJIFILM Wako Pure Chemical Corporation), and equilibrated at a flow rate of 30 μL/min. 350 mM EDTA solution was reacted at a flow rate of 10 μL/min for 60 seconds, 0.5 mM […] solution (Kishida Chemical Co., Ltd.) was reacted at a flow rate of 10 μL/min for 60 seconds, and then the NTA sensor chip was washed with 3 mM EDTA solution (Nacalai Tesque, Inc.) at a flow rate of 10 μL/min for 60 seconds. After mixing 50 μL each of 60 mM EDC solution (Global Life Science Technologies Japan K.K.) and 650 mM NHS solution (Global Life Science Technologies Japan K.K.), the reaction was carried out at a flow rate of 10 μL/min for 420 seconds. […]
The kinetic evaluation model was single-cycle kinetics, and curve fitting was performed using Biacore T200 Evaluation Software Version 3.0 (Global Life Science Technologies Japan K.K.). The binding of the peptide to hTfR was evaluated by performing curve fitting on the obtained sensorgram by least squares method and obtaining the KD value.

Starred links: 1 amine or outer side, 2 acyl side, 3 side chain; linkers in the order of their positions; H or OH if unused. Positions of bridges follow the written chain, without caps; N, C: chain ends. Non-standard residues stand in square brackets, D forms with d. Primed or numbered codes have the meaning given here. E(PEG8Me) = (S)-30-amino-27-oxo-2,5,8,11,14,17,20,23-octaoxa-26-azahentriacontane-31-oic acid, COCCOCCOCCOCCOCCOCCOCCOCCNC(=O)CC[C@H](N[*:1])C(=O)[*:2]; Phe(4-OMe)(3) = (S)-2-amino-3-(4-methoxyphenyl)propanoic acid (source code F4OMe), COc1ccc(C[C@H](N[*:1])C(=O)[*:2])cc1; Trp(1-CH2CO) = O=C([C@H](Cc1cn(CC(=O)[*:3])c2ccccc12)N[*:1])[*:2]; NMePhe(3-Cl) = CN[C@@H](Cc1cccc(Cl)c1)C(=O)O; NMeY = CN[C@@H](Cc1ccc(O)cc1)C(=O)O

T1 sequence (P02786 89-760 limits assumed): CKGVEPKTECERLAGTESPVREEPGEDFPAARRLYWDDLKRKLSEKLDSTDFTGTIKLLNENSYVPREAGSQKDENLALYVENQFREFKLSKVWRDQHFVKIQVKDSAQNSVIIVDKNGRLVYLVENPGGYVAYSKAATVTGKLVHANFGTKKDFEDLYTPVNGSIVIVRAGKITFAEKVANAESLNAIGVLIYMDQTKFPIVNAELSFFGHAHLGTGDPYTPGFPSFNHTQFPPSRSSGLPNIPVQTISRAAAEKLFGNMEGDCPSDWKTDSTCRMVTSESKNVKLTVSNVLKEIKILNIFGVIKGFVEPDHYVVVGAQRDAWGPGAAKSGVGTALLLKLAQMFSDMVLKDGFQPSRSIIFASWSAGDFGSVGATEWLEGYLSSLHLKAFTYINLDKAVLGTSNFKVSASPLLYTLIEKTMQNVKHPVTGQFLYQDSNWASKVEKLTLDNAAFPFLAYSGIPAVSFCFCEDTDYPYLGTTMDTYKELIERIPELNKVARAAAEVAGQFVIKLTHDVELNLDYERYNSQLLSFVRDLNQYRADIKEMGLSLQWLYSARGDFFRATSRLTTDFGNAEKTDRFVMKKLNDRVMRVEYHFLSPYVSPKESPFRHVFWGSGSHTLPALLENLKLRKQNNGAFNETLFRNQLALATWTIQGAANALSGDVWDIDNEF

Consider {CH2CO}-AV[NMePhe(3-Cl)]V[Trp(1-CH2CO)]NY[Phe(4-OMe)(3)]IE[E(PEG8Me)][E(PEG8Me)]F[NMeY]C-NH2 (thioether N-15; also: linker G-de-de-de-ds-ds-KN3, attachment not given here) [894_3180], for which the binding result was “no binding (tested: peptide tested up to 100 nM)”.
